Source: US20130196415

Tested on: fibrin

## trypsin (EC3.4.21.4, manufactured by Wako Pure Chemical Industries, Ltd.)
  digestion circle on fibrin-containing solid medium (fibrinolytic activity assay, protease at FLV 111, overnight at 37° C.): a digestion circle was observed for trypsin
